The values that follow come from patent publication CN117924490A (CHINA RESOURCES BIOMEDICAL CO LTD, dated 2024).

A word on the EC50: it is the concentration needed to bring the measured effect to its halfway point. For orientation: IC50 means the concentration that gives 50% inhibition. Read a high IC50 as lower potency. As usually defined, the Kd is the free concentration of one partner at which half of the binding sites on the other are occupied at equilibrium, for simple one-to-one binding.

The target in assay [1] is T1, 人IL-4R表达于HEK293-IL-4R细胞表面 (human IL-4R on the surface of HEK293-IL-4R cells) (human, UniProt P24394 26-825).
T1 construct: whole, on cells; The construct in the HEK293-IL-4R line is not described; also called 人IL-4R过表达细胞; 细胞表面IL-4R
T1 sequence (looked up): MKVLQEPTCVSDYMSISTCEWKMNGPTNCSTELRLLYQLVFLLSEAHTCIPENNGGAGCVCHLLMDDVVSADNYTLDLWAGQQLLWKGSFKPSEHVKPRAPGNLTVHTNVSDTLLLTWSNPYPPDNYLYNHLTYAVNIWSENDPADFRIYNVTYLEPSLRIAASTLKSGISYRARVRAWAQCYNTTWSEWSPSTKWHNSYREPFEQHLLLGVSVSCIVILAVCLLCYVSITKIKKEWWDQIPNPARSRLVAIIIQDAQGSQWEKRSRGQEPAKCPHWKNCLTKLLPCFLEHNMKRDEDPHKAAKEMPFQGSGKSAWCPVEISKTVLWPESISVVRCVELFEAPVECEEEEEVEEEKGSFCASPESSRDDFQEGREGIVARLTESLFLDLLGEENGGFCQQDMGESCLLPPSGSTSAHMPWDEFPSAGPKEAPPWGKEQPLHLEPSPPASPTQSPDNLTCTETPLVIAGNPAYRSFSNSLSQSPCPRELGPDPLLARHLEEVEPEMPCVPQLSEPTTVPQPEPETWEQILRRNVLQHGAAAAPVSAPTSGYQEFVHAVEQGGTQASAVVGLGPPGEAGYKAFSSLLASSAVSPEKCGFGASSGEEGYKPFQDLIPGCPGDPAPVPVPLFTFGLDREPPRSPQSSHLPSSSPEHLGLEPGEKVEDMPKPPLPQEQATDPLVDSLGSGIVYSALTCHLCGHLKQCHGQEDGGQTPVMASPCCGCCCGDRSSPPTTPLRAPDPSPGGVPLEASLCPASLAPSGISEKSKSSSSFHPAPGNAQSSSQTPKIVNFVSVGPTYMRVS
As to the kind of experiment: FACS on HEK293-IL-4R cells, FITC anti-human IgG, MFI.

For assay [2], the target named is T1, 人IL-4R表达于HEK293-IL-4R细胞表面 (human IL-4R …). As to the kind of experiment: FACS competition: blocking of biotinylated human IL-4 binding to HEK293-IL-4R cells, PE streptavidin, MFI.
Assay [3] has as its target T2, IL-4R蛋白 (Acrobiosystems, IL-H5221) (human, UniProt P24394 26-232).
T2 construct: The two catalogue numbers differ by one letter, likely a misprint; also called Human IL4R Protein, His Tag (Acro, ILR-H5221); 人IL 4R
T2 sequence (looked up): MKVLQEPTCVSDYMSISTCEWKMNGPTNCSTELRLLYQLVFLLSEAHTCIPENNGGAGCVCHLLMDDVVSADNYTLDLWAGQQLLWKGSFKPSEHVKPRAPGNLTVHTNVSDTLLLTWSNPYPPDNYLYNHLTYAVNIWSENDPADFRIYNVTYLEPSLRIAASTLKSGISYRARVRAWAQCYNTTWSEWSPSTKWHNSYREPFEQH
Description: BLI (Octet RH96), antibody captured on AHC2 probes, IL-4R protein in solution, 1:1 model. For orientation: Biolayer interferometry detects binding as a change in optical thickness at a sensor tip.

Assay [4] concerns the target T3, IL-4Rα on HEK293-hSTAT6/5×STAT6-Luc cells (UniProt P24394 26-825, limits assumed).
T3 sequence (looked up): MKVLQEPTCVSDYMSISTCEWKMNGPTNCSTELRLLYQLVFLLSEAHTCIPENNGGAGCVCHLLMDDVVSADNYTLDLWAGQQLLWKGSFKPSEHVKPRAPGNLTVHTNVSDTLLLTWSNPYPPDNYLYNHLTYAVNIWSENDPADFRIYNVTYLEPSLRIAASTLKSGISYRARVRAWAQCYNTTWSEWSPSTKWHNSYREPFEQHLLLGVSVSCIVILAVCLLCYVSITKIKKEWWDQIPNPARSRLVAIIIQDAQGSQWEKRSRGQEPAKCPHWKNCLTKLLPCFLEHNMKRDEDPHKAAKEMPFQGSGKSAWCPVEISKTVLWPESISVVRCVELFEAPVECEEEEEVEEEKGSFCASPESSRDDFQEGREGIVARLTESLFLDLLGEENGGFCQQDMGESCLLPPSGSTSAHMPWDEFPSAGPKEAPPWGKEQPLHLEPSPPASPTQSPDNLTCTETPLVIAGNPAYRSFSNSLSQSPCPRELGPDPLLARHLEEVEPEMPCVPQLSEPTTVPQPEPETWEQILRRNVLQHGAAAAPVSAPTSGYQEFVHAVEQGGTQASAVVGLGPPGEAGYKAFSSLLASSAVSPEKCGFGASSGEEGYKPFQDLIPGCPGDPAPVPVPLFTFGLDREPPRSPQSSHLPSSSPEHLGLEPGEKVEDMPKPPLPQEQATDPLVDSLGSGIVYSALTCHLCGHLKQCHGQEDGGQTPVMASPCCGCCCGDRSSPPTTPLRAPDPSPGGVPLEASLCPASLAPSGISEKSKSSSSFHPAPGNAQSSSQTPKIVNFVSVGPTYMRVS
As to the kind of experiment: cell-based or functional assay.

B1: 65G5 (antibody, human IgG1, kappa, V domains shown)
VH: EVKLVESGGALVQPGGSLKLSCAASGFTFNSYGMSWVRQTPDKRLELVAVISSDGAYTYYPDSMKGRFTISRDNAKSSLYLQMSSLQSEDTAMYYCTLITTWYFDVWGAGTTVTVSS
VL: DIQMTQSSSSFSVSLGDRVTITCKASEELYNRLAWYQQKPGNAPRLFISGATTLETGVPSRFSGSGSGKDYTLSITSLQTEDVATYYCQQYWSSPYTFGGGTKLELKR
notes: also called 抗人IL-4R抗体; 抗IL-4R抗体
The molecule B1 displayed an EC50 in assay [1] of 0.334 µg/mL. Further, in assay [2], the IC50 turned out to be 0.075 µg/mL. Besides, binding in assay [3] was put at a Kd of 0.341 nM. Also, in assay [4], the “抑制IL-4诱导的HEK293-hSTAT6/5×STAT6-Luc细胞中STAT6磷酸化活性 (luciferase reporter, IL4 protein 40ng/mL) IC50” value came out at 92.7 nM and the “抑制IL-13诱导的HEK293-hSTAT6/5×STAT6-Luc细胞中STAT6磷酸化活性 (luciferase reporter, IL-13 protein 10ng/mL) IC50” value was 5.6 nM.
